Laboratory results from US20100015650.

Molecular target: T1, BRB1 tyrosine kinase substrate peptide
T1 chain: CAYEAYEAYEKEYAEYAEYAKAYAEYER

B1: EphB4 (protein)
chain: LCLRKQSNGREAEYSDKHGQYLIGHGTKVYIDPFTYEDPNEAVREFAKEIDVSYVKIEEVIGAGEFGEVCRGRLKAPGKKESCVAIKTLKGGYTERQRREFLSEASIMGQFEHPNIIRLEGVVTNSMPVMILTEFMENGALDSFLRLNDGQFTVIQLVGMLRGIASGMRYLAEMSYVHRDLAARNILVNSNLVCKVSDFGLSRFLEENSSDPTYTSSLGGKIPIRWTAPEAIAFRKFTSASDAWSYGIVMWEVMSFGERPYWDMSNQDVINAIEQDYRLPPPPDCPTSLHQLMLDCWQKDRNARPRFPQVVSALDKMIRNPASLKIVARENGGASHPLLDQRQPHYSAFGSVGEWLRAIKMGRYEESFAAAGFGSFELVSQISAEDLLRIGVTLAGHQKKILASVQHMKSQAKPGTPGGTGGPAPQY
Question: Which Signal to Noise ratio with BRB1 Peptide (TR-FRET kinase assay; kinase 0.5 nM) does the source give for B1 here?
Answer: Its Signal to Noise ratio with BRB1 Peptide (TR-FRET kinase assay; kinase 0.5 nM) is 29.8.

B2: FGFR2 (protein)
chain: RMKNTTKKPDFSSQPAVHKLTKRIPLRRQVTVSAESSSSMNSNTPLVRITTRLSSTADTPMLAGVSEYELPEDPKWEFPRDKLTLGKPLGEGCFGQVVMAEAVGIDKDKPKEAVTVAVKMLKDDATEKDLSDLVSEMEMMKMIGKHKNIINLLGACTQDGPLYVIVEYASKGNLREYLRARRPPGMEYSYDINRVPEEQMTFKDLVSCTYQLARGMEYLASQKCIHRDLAARNVLVTENNVMKIADFGLARDINNIDYYKKTTNGRLPVKWMAPEALFDRVYTHQSDVWSFGVLMWEIFTLGGSPYPGIPVEELFKLLKEGHRMDKPANCTNELYMMMRDCWHAVPSQRPTFKQLVEDLDRILTLTTNEEYLDLSQPLEQYSPSYPDTRSSCSSGDDSVFSPDPMPYEPCLPQYPHINGSVKT
Question: B2 was tested. Which Signal to Noise ratio with BRB1 Peptide (TR-FRET kinase assay; kinase 0.25 nM) did it give?
Answer: Its Signal to Noise ratio with BRB1 Peptide (TR-FRET kinase assay; kinase 0.25 nM) is 27.1.

B3: FGFR3 (protein)
chain: RLRSPPKKGLGSPTVHKISRFPLKRQVSLESNASMSSNTPLVRIARLSSGEGPTLANVSELELPADPKWELSRARLTLGKPLGEGCFGQVVMAEAIGIDKDRAAKPVTVAVKMLKDDATDKDLSDLVSEMEMMKMIGKHKNIINLLGACTQGGPLYVLVEYAAKGNLREFLRARRPPGLDYSFDTCKPPEEQLTFKDLVSCAYQVARGMEYLASQKCIHRDLAARNVLVTEDNVMKIADFGLARDVHNLDYYKKTTNGRLPVKWMAPEALFDRVYTHQSDVWSFGVLLWEIFTLGGSPYPGIPVEELFKLLKEGHRMDKPANCTHDLYMIMRECWHAAPSQRPTFKQLVEDLDRVLTVTSTDEYLDLSAPFEQYSPGGQDTPSSSSSGDDSVFAHDLLPPAPPSSGGSRT
Question: For B3, which Signal to Noise ratio with BRB1 Peptide (TR-FRET kinase assay; kinase 0.25 nM) is on record?
Answer: The Signal to Noise ratio with BRB1 Peptide (TR-FRET kinase assay; kinase 0.25 nM) was 24.4.

B4: FGFR4 (protein)
chain: RGQALHGRHPRPPATVQKLSRFPLARQFSLESGSSGKSSSSLVRGVRLSSSGPALLAGLVSLDLPLDPLWEFPRDRLVLGKPLGEGCFGQVVRAEAFGMDPARPDQASTVAVKMLKDNASDKDLADLVSEMEVMKLIGRHKNIINLLGVCTQEGPLYVIVECAAKGNLREFLRARRPPGPDLSPDGPRSSEGPLSFPVLVSCAYQVARGMQYLESRKCIHRDLAARNVLVTEDNVMKIADFGLARGVHHIDYYKKTSNGRLPVKWMAPEALFDRVYTHQSDVWSFGILLWEIFTLGGSPYPGIPVEELFSLLREGHRMDRPPHCPPELYGLMRECWHAAPSQRPTFKQLVEALDKVLLAVSEEYLDLRLTFGPYSPSGGDASSTCSSSDSVFSHDPLPLGSSSFPFGSGVQT
Question: With B4 as the protein, how does the Signal to Noise Ratio with BRB1 Peptide (TR-FRET kinase assay; kinase 3 nM) read?
Answer: Its Signal to Noise Ratio with BRB1 Peptide (TR-FRET kinase assay; kinase 3 nM) is 17.7.

B5: FLT1 (protein)
chain: RKMKRSSSEIKTDYLSIIMDPDEVPLDEQCERLPYDASKWEFARERLKLGKSLGRGAFGKVVQASAFGIKKSPTCRTVAVKMLKEGATASEYKALMTELKILTHIGHHLNVVNLLGACTKQGGPLMVIVEYCKYGNLSNYLKSKRDLFFLNKDAALHMEPKKEKMEPGLEQGKKPRLDSVTSSESFASSGFQEDKSLSDVEEEEDSDGFYKEPITMEDLISYSFQVARGMEFLSSRKCIHRDLAARNILLSENNVVKICDFGLARDIYKNPDYVRKGDTRLPLKWMAPESIFDKIYSTKSDVWSYGVLLWEIFSLGGSPYPGVQMDEDFCSRLREGMRMRAPEYSTPEIYQIMLDCWHRDPKERPRFAELVEKLGDLLQANVQQDGKDYIPINAILTGNSGFTYSTPAFSEDFFKESISAPKFNSGSSDDVRYVNAFKFMSLERIKTFEELLPNATSMFDDYQGDSSTLLASPMLKRFTWTDSKPKASLKIDLRVTSKSKESGLSDVSRPSFCHSSCGHVSEGKRRFTYDHAELERKIACCSPPPDYNSVVLYSTPPI
Question: With B5 as the protein, how does the Signal to Noise ratio with BRB1 Peptide (TR-FRET kinase assay; kinase 0.25 nM) read?
Answer: The Signal to Noise ratio with BRB1 Peptide (TR-FRET kinase assay; kinase 0.25 nM) was 4.1.

B6: FLT3 (protein)
chain: HKYKKQFRYESQLQMVQVTGSSDNEYFYVDFREYEYDLKWEFPRENLEFGKVLGSGAFGKVMNATAYGISKTGVSIQVAVKMLKEKADSSEREALMSELKMMTQLGSHENIVNLLGACTLSGPIYLIFEYCCYGDLLNYLRSKREKFHRTWTEIFKEHNFSFYPTFQSHPNSSMPGSREVQIHPDSDQISGLHGNSFHSEDEIEYENQKRLEEEEDLNVLTFEDLLCFAYQVAKGMEFLEFKSCVHRDLAARNVLVTHGKVVKICDFGLARDIMSDSNYVVRGNARLPVKWMAPESLFEGIYTIKSDVWSYGILLWEIFSLGVNPYPGIPVDANFYKLIQNGFKMDQPFYATEEIYIIMQSCWAFDSRKRPSFPNLTSFLGCQLADAEEAMYQNVDGRVSECPHTYQNRRPFSREMDLGLLSPQAQVEDS
Question: With B6 as the protein, how does the Signal to Noise ratio with BRB1 Peptide (TR-FRET kinase assay; kinase 0.1 nM) read?
Answer: The Signal to Noise ratio with BRB1 Peptide (TR-FRET kinase assay; kinase 0.1 nM) was 25.9.

B7: FLT4 (protein)
chain: MRRPAHADIKTGYLSIIMDPGEVPLEEQCEYLSYDASQWEFPRERLHLGRVLGYGAFGKVVEASAFGIHKGSSCDTVAVKMLKEGATASEHRALMSELKILIHIGNHLNVVNLLGACTKPQGPLMVIVEFCKYGNLSNFLRAKRDAFSPCAEKSPEQRGRFRAMVELARLDRRRPGSSDRVLFARFSKTEGGARRASPDQEAEDLWLSPLTMEDLVCYSFQVARGMEFLASRKCIHRDLAARNILLSESDVVKICDFGLARDIYKDPDYVRKGSARLPLKWMAPESIFDKVYTTQSDVWSFGVLLWEIFSLGASPYPGVQINEEFCQRLRDGTRMRAPELATPAIRRIMLNCWSGDPKARPAFSELVEILGDLLQGRGLQEEEEVCMAPRSSQSSEEGSFSQVSTMALHIAQADAEDSPPSLQRHSLAARYYNWVSFPGCLARGAETRGSSRMKTFEEFPMTPTTYKGSVDNQTDSGMVLASEEFEQIESRHRQESGFS
Question: B7 was tested. Which Signal to Noise ratio with BRB1 Peptide (TR-FRET kinase assay; kinase 0.25 nM) did it give?
Answer: Its Signal to Noise ratio with BRB1 Peptide (TR-FRET kinase assay; kinase 0.25 nM) is 20.

B8: FMS (CSFR) (protein)
chain: KYKQKPKYQVRWKIIESYEGNSYTFIDPTQLPYNEKWEFPRNNLQFGKTLGAGAFGKVVEATAFGLGKEDAVLKVAVKMLKSTAHADEKEALMSELKIMSHLGQHENIVNLLGACTHGGPVLVITEYCCYGDLLNFLRRKAEAMLGPSLSPGQDPEGGVDYKNIHLEKKYVRRDSGFSSQGVDTYVEMRPVSTSSNDSFSEQDLDKEDGRPLELRDLLHFSSQVAQGMAFLASKNCIHRDVAARNVLLTNGHVAKIGDFGLARDIMNDSNYIVKGNARLPVKWMAPESIFDCVYTVQSDVWSYGILLWEIFSLGLNPYPGILVNSKFYKLVKDGYQMAQPAFAPKNIYSIMQACWALEPTHRPTFQQICSFLQEQAQEDRRERDYTNLPSSSRSGGSGSSSSELEEESSSEHLTCCEQGDIAQPLLQPNNYQFC
Question: Which Signal to Noise ratio with BRB1 Peptide (TR-FRET kinase assay; kinase 0.25 nM) does the source give for B8 here?
Answer: The Signal to Noise ratio with BRB1 Peptide (TR-FRET kinase assay; kinase 0.25 nM) was 3.

B9: HER4 (ERBB4) (protein)
chain: RRKSIKKKRALRRFLETELVEPLTPSGTAPNQAQLRILKETELKRVKVLGSGAFGTVYKGIWVPEGETVKIPVAIKILNETTGPKANVEFMDEALIMASMDHPHLVRLLGVCLSPTIQLVTQLMPHGCLLEYVHEHKDNIGSQLLLNWCVQIAKGMMYLEERRLVHRDLAARNVLVKSPNHVKITDFGLARLLEGDEKEYNADGGKMPIKWMALECIHYRKFTHQSDVWSYGVTIWELMTFGGKPYDGIPTREIPDLLEKGERLPQPPICTIDVYMVMVKCWMIDADSRPKFKELAAEFSRMARDPQRYLVIQGDDRMKLPSPNDSKFFQNLLDEEDLEDMMDAEEYLVPQAFNIPPPIYTSRARIDSNRSEIGHSPPPAYTPMSGNQFVYRDGGFAAEQGVSVPYRAPTSTIPEAPVAQGATAEIFDDSCCNGTLRKPVAPHVQEDSSTQRYSADPTVFAPERSPRGELDEEGYMTPMRDKPKQEYLNPVEENPFVSRRKNGDLQALDNPEYHNASNGPPKAEDEYVNEPLYLNTFANTLGKAEYLKNNILSMPEKAKKAFDNPDYWNHSLPPRSTLQHPDYLQEYSTKYFYKQNGRIRPIVAENPEYLSEFSLKPGTVLPPPPYRHRNTVV
Question: With B9 as the protein, how does the Signal to Noise ratio with BRB1 Peptide (TR-FRET kinase assay; kinase 0.1 nM) read?
Answer: Its Signal to Noise ratio with BRB1 Peptide (TR-FRET kinase assay; kinase 0.1 nM) is 3.1.

B10: IGF1R (protein)
chain: RKRNNSRLGNGVLYASVNPEYFSAADVYVPDEWEVAREKITMSRELGQGSFGMVYEGVAKGVVKDEPETRVAIKTVNEAASMRERIEFLNEASVMKEFNCHHVVRLLGVVSQGQPTLVIMELMTRGDLKSYLRSLRPEMENNPVLAPPSLSKMIQMAGEIADGMAYLNANKFVHRDLAARNCMVAEDFTVKIGDFGMTRDIYETDYYRKGGKGLLPVRWMSPESLKDGVFTTYSDVWSFGVVLWEIATLAEQPYQGLSNEQVLRFVMEGGLLDKPDNCPDMLFELMRMCWQYNPKMRPSFLEIISSIKEEMEPGFREVSFYYSEENKLPEPEELDLEPENMESVPLDPSASSSSLPLPDRHSGHKAENGPGPGVLVLRASFDERQPYAHMNGGRKNERALPLPQSSTC
Question: How did the Signal to Noise ratio with BRB1 Peptide (TR-FRET kinase assay; kinase 0.25 nM) turn out when B10 was run?
Answer: Its Signal to Noise ratio with BRB1 Peptide (TR-FRET kinase assay; kinase 0.25 nM) is 25.1.

B11: IRR (protein)
chain: YGKKRNRTLYASVNPEYFSASDMYVPDEWEVPREQISIIRELGQGSFGMVYEGLARGLEAGEESTPVALKTVNELASPRECIEFLKEASVMKAFKCHHVVRLLGVVSQGQPTLVIMELMTRGDLKSHLRSLRPEAENNPGLPQPALGEMIQMAGEIADGMAYLAANKFVHRDLAARNCMVSQDFTVKIGDFGMTRDVYETDYYRKGGKGLLPVRWMAPESLKDGIFTTHSDVWSFGVVLWEIVTLAEQPYQGLSNEQVLKFVMDGGVLEELEGCPLQLQELMSRCWQPNPRLRPSFTHILDSIQEELRPSFRLLSFYYSPECRGARGSLPTTDAEPDSSPTPRDCSPQNGGPGH
Question: With B11 as the protein, how does the Signal to Noise ratio with BRB1 Peptide (TR-FRET kinase assay; kinase 0.5 nM) read?
Answer: The Signal to Noise ratio with BRB1 Peptide (TR-FRET kinase assay; kinase 0.5 nM) was 19.2.

B12: KIT (protein)
chain: TYKYLQKPMYEVQWKVVEEINGNNYVYIDPTQLPYDHKWEFPRNRLSFGKTLGAGAFGKVVEATAYGLIKSDAAMTVAVKMLKPSAHLTEREALMSELKVLSYLGNHMNIVNLLGACTIGGPTLVITEYCCYGDLLNFLRRKRDSFICSKQEDHAEAALYKNLLHSKESSCSDSTNEYMDMKPGVSYVVPTKADKRRSVRIGSYIERDVTPAIMEDDELALDLEDLLSFSYQVAKGMAFLASKNCIHRDLAARNILLTHGRITKICDFGLARDIKNDSNYVVKGNARLPVKWMAPESIFNCVYTFESDVWSYGIFLWELFSLGSSPYPGMPVDSKFYKMIKEGFRMLSPEHAPAEMYDIMKTCWDADPLKRPTFKQIVQLIEKQISESTNHIYSNLANCSPNRQKPVVDHSVRINSVGSTASSSQPLLVHDDV
Question: B12 was tested. Which Signal to Noise ratio with BRB1 Peptide (TR-FRET kinase assay; kinase 2 nM) did it give?
Answer: The Signal to Noise ratio with BRB1 Peptide (TR-FRET kinase assay; kinase 2 nM) was 1.5.
